Assay results taken from US20240294650A1 (Alector, published 2024).
Where a chain is given by its changes, count along the chain named.

T1: human MerTK (human, UniProt Q12866 21-999)
T1 construct: endogenous receptor on cells; also called human MerTK endogenously expressed on SK-MEL-5 cells; MerTK on human macrophages
T1 sequence: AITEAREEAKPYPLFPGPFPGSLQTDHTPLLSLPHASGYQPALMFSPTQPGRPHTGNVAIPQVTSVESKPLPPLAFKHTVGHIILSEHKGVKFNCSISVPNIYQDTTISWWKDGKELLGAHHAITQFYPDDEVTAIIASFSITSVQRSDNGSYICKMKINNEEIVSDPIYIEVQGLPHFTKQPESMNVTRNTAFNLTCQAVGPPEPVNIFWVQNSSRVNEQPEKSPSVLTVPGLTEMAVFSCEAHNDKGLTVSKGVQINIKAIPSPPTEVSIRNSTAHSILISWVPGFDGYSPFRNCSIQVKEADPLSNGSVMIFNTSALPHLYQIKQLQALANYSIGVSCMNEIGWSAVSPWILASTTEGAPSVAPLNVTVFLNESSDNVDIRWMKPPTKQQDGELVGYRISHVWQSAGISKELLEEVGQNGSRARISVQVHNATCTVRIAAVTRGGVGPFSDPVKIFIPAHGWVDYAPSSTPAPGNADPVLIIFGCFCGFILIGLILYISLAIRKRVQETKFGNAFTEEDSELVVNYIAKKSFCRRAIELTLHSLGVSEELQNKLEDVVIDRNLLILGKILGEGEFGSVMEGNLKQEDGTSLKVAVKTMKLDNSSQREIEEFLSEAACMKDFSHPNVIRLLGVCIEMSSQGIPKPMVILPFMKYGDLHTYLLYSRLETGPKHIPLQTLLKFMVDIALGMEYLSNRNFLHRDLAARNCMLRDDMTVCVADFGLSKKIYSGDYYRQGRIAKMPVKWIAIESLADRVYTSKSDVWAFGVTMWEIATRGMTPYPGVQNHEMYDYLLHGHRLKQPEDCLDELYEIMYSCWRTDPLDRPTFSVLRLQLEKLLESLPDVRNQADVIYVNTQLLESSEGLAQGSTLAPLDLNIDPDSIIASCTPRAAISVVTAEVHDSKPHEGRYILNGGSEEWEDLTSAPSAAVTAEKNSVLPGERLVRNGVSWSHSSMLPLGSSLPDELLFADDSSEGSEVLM

T2: recombinant human MerTK extracellular domain (human, UniProt Q12866 21-505)
T2 construct: also called human MerTK ECD; not shown: polyHis or TEVS/Thrombin/murine IgG2a-Fc tag
T2 sequence: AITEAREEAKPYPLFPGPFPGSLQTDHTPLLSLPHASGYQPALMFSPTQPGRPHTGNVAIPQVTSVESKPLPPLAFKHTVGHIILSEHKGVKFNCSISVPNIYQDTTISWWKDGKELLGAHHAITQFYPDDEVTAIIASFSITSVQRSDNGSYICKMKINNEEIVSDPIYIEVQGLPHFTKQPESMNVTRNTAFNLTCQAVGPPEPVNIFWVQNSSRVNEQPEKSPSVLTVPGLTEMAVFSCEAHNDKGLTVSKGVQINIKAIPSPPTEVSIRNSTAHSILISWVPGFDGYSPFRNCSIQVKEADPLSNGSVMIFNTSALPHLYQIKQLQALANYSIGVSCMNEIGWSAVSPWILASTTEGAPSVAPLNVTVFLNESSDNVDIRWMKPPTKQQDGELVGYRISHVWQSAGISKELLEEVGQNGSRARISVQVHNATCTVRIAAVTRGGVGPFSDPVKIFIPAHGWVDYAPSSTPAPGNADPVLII

B1: MTK-229 (antibody, human IgG1, V domains shown)
VH: QVQLQQSGPELVKPGASVKISCKASGYEFSRSWMNWVKQRPGKGLEWIGRIYPGDGDTNYKGKLKGQATLTADKSSSTAYMQLSSLTFEDSAVYFCARGGGYYYDSRYEGFVYWGQGTVVTVSA
VL: QIVLTQSPAIMSASPGEEVTMTCSASSSVSYMHWYQQKSGTSPKRWIYDTSKLASGVSGRFSGSGSGTSYSLTISSMEAEDAATYYCQQWSSNPPITFGAGTKLELK
B2: MTK-201 (antibody, human IgG1, V domains shown)
VH: QVQLRQSGPGLVQPSQSLSITCTVSGFSLSNYGLHWVRQSPGKGLEWLGVIWSGGITDYNAAFISRLSIIKDNSRSQVFFKMNSLQADDTAIYYCARKGHDPYAMDFWGQGTSVTVSS
VL: QIVLTQSPPIMSAFLGERVTMTCTASSSVSSSYLHWYRQMPGSSPKLWIYDTSNLASGVPARFSGSGSGTSYSLTISSMEAEDAATYYCHQYHHSPYTFGGGTKLEIK
B3: MTK-212 (antibody, human IgG1, V domains shown)
VH: QVQLQQSGPELVKPGASVKISCKASGYAFSSSWVNWVKQRPGKGLEWIGRIYPGDGDSNYNGNFKGKATLTADKSSNTAYLQLSSLTSEDSAVYFCARKSHFIYYTLDYWGQGTPVTVSS
VL: DIVMTQSHKFKSTSVGDRVSIACKASQDVGTSVAWYQQKPGKSPKLLIYWASSRHTGVPDRFTGSGSGTDFTLTISNVQSEDLTDYFCQQYSTYPYTFGGGTKLEIK
B4: MTK-211 (antibody, human IgG1, V domains shown)
VH: QVQLQQSGAELMKPGASVKLSCKATGYTFTGYWIEWVKQRPGHGLEWIGEILPGSGGSNYNEKFKGKATFTADTSSNTAYIQLSSLTTEDSAIYCCARGEPSYFSDAGFAYWGQGTLVTVSA
VL: QIVLTQSPAVMSASPGEKVTMTCSASSSITYMHWYQQKPGTSPKRWIYDTSKLASGVPARFSGSGSGTSYFLTISSMEAEDVATYYCHQRSTYPYTFGGGTKLEIM
B5: MTK-219 (antibody, human IgG1, V domains shown)
VH: QVQLQQSGADLMKPGASVKLSCKATGNTFTGYWIEWVKQRPGHGLEWIGEILTGSGSTNYNERFKGKATFTADTSSNTAYMQLSSLTTEDSAIYYCAGSYFTNSWFPYWGQGSLVTVSA
VL: DIVLTQSPASLAVSLGQRATISCRASESVDSYGNSFMHWYQQKPGQPPKLLIYRAYTLESGIPARFSGSGSRTDFTLTINPVEADDVATYYCQQSNEDPRTFGGGTKLEIK
B6: MTK-222 (antibody, human IgG1, V domains shown)
VH: B5 VH with N27Y, T58S, R63K, T74S, Y80F, F101Y, T102S
VL: B5 VL with A9V, N34S, Y56S, T57S, A84T
B7: MTK-220 (antibody, V domains shown)
VH: EVQLVESGGGLVKPGGSLKLSCAASGFTFSDYGMHWVRQAPEKGLEWVAFISGGSGTIYYEDTVKGRFTISRDNAKNTLFLQMTSLRSEDTAMYYCTRGGNYFDYWGQGTTLTVSS
VL: NIMLTQSPSSLAVSAGEKVTMTCKSSQSVLYSSNQKNYLAWYQQKPGQSPKLLIYWASTRESGVPDRFTGSGSGTDFTLTISNVQAEDLAVYYCHQYFSSWTFGGGTKLEIK
B8: MTK-213 (antibody, human IgG1, V domains shown)
VH: QVQLQQPGAELVKPGASVKMSCKASGYTFTSYWITWVKQRPGQGHEWIGEIYPGIGSTNYNEKFKSKATLTVDTSSRTAYMQLSSLTSEDSAVYFCARGAYTKYYFDYWGQGTTLTVSS
VL: DIVMTQSHKFMSTSVGDRVSITCKASQDVGDAVAWYQQKPGQTPKLLIYWASTRHTGVPDRFTGSGSGTDFTLTISNVQSEDLADYFCQQYSSYLMYTFGGGTKLEIK
B9: MTK-223 (antibody, human IgG1, V domains shown)
VH: DVQLQESGPGLVKPSQSLSLTCSVTGYSITSGYYWNWIRQFPGNKLEWMGYISYDGTNNYNPSLKNRISITRDTSENQFFLKLNSVTTEDTATYFCVRGAGYWGQGTTLTVSS
VL: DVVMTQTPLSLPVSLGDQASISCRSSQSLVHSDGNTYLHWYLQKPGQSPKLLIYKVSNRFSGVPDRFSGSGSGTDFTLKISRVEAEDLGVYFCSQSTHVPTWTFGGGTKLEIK
B10: MTK-210 (antibody, human IgG1, V domains shown)
VH: QVQLQQSGPELVKPGASVKISCKASDYEFSRSWMNWVKQRPGKGLEWIGRIYPGDGDTNYNGKFKGKATLTADKSSNTAYMQLNSLTSEDSAVYFCARKGGYYYSISNYFDYWGQGTTLTVSS
VL: QIVLTQSPAIMSASPGVKVTMTCSASSSVSYMHWYQQKPGSSPRLLIYDTSNLASGVPVRFSGSGSGTSYSLTISRMEAEDAATYYCQQWSSYPPYTFGGGTKLEIK
B11: MTK-228 (antibody, human IgG1, V domains shown)
VH: QDQLQQSGPELVKPGASVKISCKASGYSFTSYYIHWVKQRPGQGLEWVGWIFPGNGNTKYNERFKGKATLTADTSSSTAYMQLSSLTSEDSAVYYCARLGLIYALDYWGQGTSVTVSS
VL: DAVMTQTPLSLPVSLGDQASISCRSSQSLENSNGNTYLHWYLQKPGQSPQLLIYRVSNRFSGVLDRFSGSGSGTDFTLKISRVEAEDLGVYFCLQVTHVPFTFGSGTKLEIK
B12: MTK-218 (antibody, human IgG1, V domains shown)
VH: B11 VH with D2V, A16T, E46D, V48I, G56R, K59Q, R63K
VL: B11 VL with N35H, L64Q
B13: MTK-226 (antibody, human IgG1, V domains shown)
VH: B11 VH with D2V, V48I, R63N, K65R
VL: B11 VL with N31S, K79Q
B14: MTK-227 (antibody, human IgG1, V domains shown)
VH: EVKLVESGGGLVQPGGSLSLSCAASGFTFTDNYMTWVRQPPGKALEWLGFSRNKANGYTTEYSASVKGRFTISRDSSQSILYLQMNALRAEDSGTYYCARFPPHYYAGGYFDVWGTGTTVTVSS
VL: DIQMTQSPASLSASVGETVTITCRASENIYSYLAWYQQKQGKSPQLLVYNAKTLAEGVPSRFSGSGSGTQFSLKINSLQPADFGSYYCQHYYRTPPTFGGGTKLEIK

What follows are binders tested against T1, human MerTK (assay: FACS, SK-MEL-5 cells, 10 ug/ml).
Procedure: To determine whether recombinant anti-human MerTK antibodies of the present disclosure bind to human MerTK endogenously expressed on SK-MEL-5 cells and CHO cells overexpressing mouse MerTK (CHO-muMerTK OE cells), as compared to A375 and parental CHO cells as negative controls, the following experiments were performed. SK-MEL-5 cells, A375 cells, CHO-muMerTK OE cells, and CHO parental cells were plated at 100,000 cells/well. Anti-MerTK antibodies were added to the cells at 10 μg/ml. After 60 minutes on ice, cells were washed and then stained with PE-conjugated goat anti-human IgG antibody (Southern Biotech Cat #2040-09, Birmingham, AL) in the presence of Fc block solution on ice for 30 minutes, and then washed twice with cold FACS buffer (2% FBS in PBS). Mouse anti-human MerTK-PE conjugated (Biolegend, Clone 590H11G1E3) or anti-mouse MerTK-PE conjugated (ThermoFisher, Clone DS5MMER) antibodies were used as positive controls. Stained cells were acquired on a BD FACS Canto II cytometer and the mean fluorescence intensity (MFI) was calculated with FlowJo.

Binder	MFI
B1	32200 MFI
B2	40300 MFI
B3	8080 MFI
B4	30500 MFI
B5	26800 MFI
B6	27500 MFI
B7	29000 MFI
B8	40300 MFI
B9	26800 MFI
B10	29900 MFI
B11	60200 MFI
B12	49000 MFI
B13	49100 MFI
B14	40900 MFI

What follows are binders tested against T2, recombinant human MerTK extracellular … (assay: SPR Carterra LSA, Ab immobilised).
Procedure: Binding kinetics of anti-MerTK IgG1 antibodies of the present disclosure to human, cyno, and murine MerTK were evaluated using a Carterra LSA instrument (Carterra, Salt Lake City, UT). […] A HC200M sensor chip (Carterra) was activated using the single channel flow cell with a 7-minute injection of a 1:1:1 mixture of 100 mM MES pH 5.5, 100 mM sulfo-NHS, 400 mM EDC (all reconstituted in MES pH 5.5; 100 μl of each mixed in vial immediately before running assay). After switching to the multi-channel array flow cell, the antibodies were injected over the activated chip in three 96-spot arrays for 10 minutes each. The remaining unconjugated active groups on the chip were then blocked by injecting 1M Ethanolamine pH 8.5 (Carterra) for 7 minutes using the single channel flow cell. The resulting sensor chip contained three spots for each antibody, at three different densities. Two independent experiments were performed as follows, resulting in an N of between one and six determinations for each antibody. Spots that yielded less than 25 RU of analyte binding were excluded from further analysis.
After priming with running buffer (HBS-TE, Carterra) with 0.5 mg/ml BSA (Sigma), the immobilized anti-MerTK antibodies were tested for their ability to bind to several forms of recombinant MerTK extracellular domain, including human, cynomolgus, and mouse orthologs as described above. Estimates of affinity were generated by injecting each analyte over the entire antibody array using the single channel flow cell. MerTK analytes were diluted with running buffer, in a series of six, three-fold serial dilutions starting from 1 μM for human and cynomolgus MerTK, and 600 nM for mouse MerTK. Analytes were injected for 5 minutes, and dissociation was followed for 10 minutes. After each analyte injection, antibodies were regenerated with either Protein A/G Elution Buffer (Thermo) with 1M NaCl (Teknova), or with 10 mM Glycine pH 2.5. Three buffer blanks were run between each series (one species per series). Data were processed and analyzed using NextGenKIT high-throughput kinetics analysis software (Carterra).

Binder	Kd
B1	18 nM
B3	82 nM
B4	1.3 nM
B5	440 nM
B6	130 nM
B7	150 nM
B8	64 nM
B9	75 nM
B10	31 nM
B11	42 nM
B12	64 nM
B13	39 nM
B14	99 nM
